In patent US20090136526A1 (Seagen, published 2009):

Tests used:
[1] = biological target: T1, CD19 on CD19-positive tumor cell lines (human, UniProt P15391 20-556); assay: cell-based or functional assay
T1 sequence (looked up): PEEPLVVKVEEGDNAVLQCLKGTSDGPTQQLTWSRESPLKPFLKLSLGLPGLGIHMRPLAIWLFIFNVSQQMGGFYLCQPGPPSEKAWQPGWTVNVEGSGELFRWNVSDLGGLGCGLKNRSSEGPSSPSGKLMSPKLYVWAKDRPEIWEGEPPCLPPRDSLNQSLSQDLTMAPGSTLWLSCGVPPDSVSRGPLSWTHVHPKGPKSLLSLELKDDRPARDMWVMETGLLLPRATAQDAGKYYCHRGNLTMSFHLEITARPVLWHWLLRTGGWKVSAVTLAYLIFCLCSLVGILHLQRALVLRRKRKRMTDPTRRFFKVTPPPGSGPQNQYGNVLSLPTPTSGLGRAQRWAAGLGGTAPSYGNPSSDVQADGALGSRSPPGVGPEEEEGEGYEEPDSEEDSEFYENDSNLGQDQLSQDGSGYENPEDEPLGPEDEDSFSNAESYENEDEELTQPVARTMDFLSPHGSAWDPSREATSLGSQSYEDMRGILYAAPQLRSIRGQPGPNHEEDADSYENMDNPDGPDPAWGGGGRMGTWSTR

[2] = biological target: CD19 on CD19-positive tumor cell lines (human) (UniProt P15391); assay: cell-based or functional assay

## hBU12 (antibody)
[1]
  internalization kinetics by FACS, CD21 low Ramos cells: 50%

## hBU12-vcMMAE (antibody)
[1]
  internalization kinetics by FACS, CD21 low Ramos cells: 50%

## LT19 (antibody)
[1]
  IC50 (ng/mL) of anti-CD19 antibody linked with 2°-ADC, cell viability (resazurin, 96 h), CA46 cells: 4 ng/mL
  IC50 (ng/mL) of anti-CD19 antibody linked with 2°-ADC, cell viability (resazurin, 96 h), HS Sultan cells: 112 ng/mL
  IC50 (ng/mL) of anti-CD19 antibody linked with 2°-ADC, cell viability (resazurin, 96 h), HT cells: 111 ng/mL
  IC50 (ng/mL) of anti-CD19 antibody linked with 2°-ADC, cell viability (resazurin, 96 h), MC 116 cells: 192 ng/mL
  IC50 (ng/mL) of anti-CD19 antibody linked with 2°-ADC, cell viability (resazurin, 96 h), Ramos cells: 1 ng/mL
  IC50 (ng/mL) of anti-CD19 antibody linked with 2°-ADC, cell viability (resazurin, 96 h), Toledo cells: 584 ng/mL

## B-C3 (antibody)
[1]
  IC50 (ng/mL) of anti-CD19 antibody linked with 2°-ADC, cell viability (resazurin, 96 h), CA46 cells: 17 ng/mL
  IC50 (ng/mL) of anti-CD19 antibody linked with 2°-ADC, cell viability (resazurin, 96 h), HS Sultan cells: 234 ng/mL
  IC50 (ng/mL) of anti-CD19 antibody linked with 2°-ADC, cell viability (resazurin, 96 h), MC 116 cells: 195 ng/mL
  IC50 (ng/mL) of anti-CD19 antibody linked with 2°-ADC, cell viability (resazurin, 96 h), Ramos cells: 13 ng/mL
  IC50 (ng/mL) of anti-CD19 antibody linked with 2°-ADC, cell viability (resazurin, 96 h), Toledo cells: 359 ng/mL

## HIB19 (antibody)
[1]
  IC50 (ng/mL) of anti-CD19 antibody linked with 2°-ADC, cell viability (resazurin, 96 h), CA46 cells: 1 ng/mL
  IC50 (ng/mL) of anti-CD19 antibody linked with 2°-ADC, cell viability (resazurin, 96 h), HS Sultan cells: 97 ng/mL
  IC50 (ng/mL) of anti-CD19 antibody linked with 2°-ADC, cell viability (resazurin, 96 h), HT cells: 1000 ng/mL
  IC50 (ng/mL) of anti-CD19 antibody linked with 2°-ADC, cell viability (resazurin, 96 h), MC 116 cells: 188 ng/mL
  IC50 (ng/mL) of anti-CD19 antibody linked with 2°-ADC, cell viability (resazurin, 96 h), Ramos cells: 1 ng/mL
  IC50 (ng/mL) of anti-CD19 antibody linked with 2°-ADC, cell viability (resazurin, 96 h), Toledo cells: 1000 ng/mL

B1: SJ25-C1 (antibody, from another filing, V domains shown)
VH: EVKLQQSGAELVRPGSSVKISCKASGYAFSSYWMNWVKQRPGQGLEWIGQIYPGDGDTNYNGKFKGQATLTADKSSSTAYMQLSGLTSEDSAVYFCARKTISSVVDFYFDYWGQGTTVTVSS
VL: DIELTQSPKFMSTSVGDRVSVTCKASQNVGTNVAWYQQKPGQSPKPLIYSATYRNSGVPDRFTGSGSGTDFTLTITNVQSKDLADYFCQQYNRYPYTSGGGTKLEI
[2]
  IC50 (ng/mL) of anti-CD19 antibody linked with 2°-ADC, cell viability (resazurin, 96 h), CA46 cells: 4 ng/mL
  IC50 (ng/mL) of anti-CD19 antibody linked with 2°-ADC, cell viability (resazurin, 96 h), HS Sultan cells: 150 ng/mL
  IC50 (ng/mL) of anti-CD19 antibody linked with 2°-ADC, cell viability (resazurin, 96 h), MC 116 cells: 200 ng/mL
  IC50 (ng/mL) of anti-CD19 antibody linked with 2°-ADC, cell viability (resazurin, 96 h), Ramos cells: 3 ng/mL
  IC50 (ng/mL) of anti-CD19 antibody linked with 2°-ADC, cell viability (resazurin, 96 h), Toledo cells: 512 ng/mL

B2: cBU12 (antibody, V domains shown)
VH: QVTLKESGPGILQPSQTLSLTCSFSGFSLSTSGMGVGWIRQPSGKGLEWLAHIWWDDDKRYNPALKSRLTISKDTSSNQVFLKIASVDTADTAAYYCARMELWSYYFDYWGQGTTLTVSS
VL: ENVLTQSPAIMSASPGEKVTMTCSASSSVSYMHWYQQKSSTSPKLWIYDTSKLASGVPGRFSGSGSGNSHFLTISSMEAEDVATYYCFQGSVYPFTFGSGTKLEIKR
[1]
  IC50 (ng/mL) of anti-CD19 antibody linked with 2°-ADC, cell viability (resazurin, 96 h), CA46 cells: 7 ng/mL
  IC50 (ng/mL) of anti-CD19 antibody linked with 2°-ADC, cell viability (resazurin, 96 h), HS Sultan cells: 100 ng/mL
  IC50 (ng/mL) of anti-CD19 antibody linked with 2°-ADC, cell viability (resazurin, 96 h), HT cells: 238 ng/mL
  IC50 (ng/mL) of anti-CD19 antibody linked with 2°-ADC, cell viability (resazurin, 96 h), MC 116 cells: 186 ng/mL
  IC50 (ng/mL) of anti-CD19 antibody linked with 2°-ADC, cell viability (resazurin, 96 h), Ramos cells: 5 ng/mL
  IC50 (ng/mL) of anti-CD19 antibody linked with 2°-ADC, cell viability (resazurin, 96 h), Toledo cells: ~1000 ng/mL
